Results published in the DeepSol protein solubility set.

test: soluble on expression in E. coli; label from the status in PepcDB or PDB records

Soluble on expression in E. coli, not soluble:
MGSDKIHHHHHHMMFLFINISLAQTADTAVKSDELQTTTTSVDEVGVAPADPTPTLSKKELRRQRVAKRNLHYNILGGPSYTPDFGLLIGGSALMTFRMNPSDTTQQRSVVPMAIALMFEGGLNLFTKPQLFFKGDRFRIFGVFAYKNTLENFYGIGYSTNKDYPRGEDTSEYRYSGVQVNPWFLFRLGKSNFFAGPQIDFNYDKITKPAAGMIEQPSYIAAGGTDHGYSNLSSGLGFLLTYDTRDVPANAYRGTYLDFRGMMYNKAFGSDNNFYRLEIDYRQYKTLGKRKVLAWTVQTKNVFGNVPLTKYALSGTPFDLRGYYMGQFRDKSSHVMMAEYRQMINTDKSNWVKKMLNHVGYVAWGGCGFMGPTPGKIEGVLPNLGLGLRIEVQPRMNVRLDFGRDMVNKQNLFYFNMTEAF
MGSDKIHHHHHHMMKIYKKNIDHYIMLSFEINEMNIPFTGQIVVKEDDEVTREVILGRAKKIHEWLVLVDHIFSPFRTNSELTLYNHRKIEMTGTNLLFQEVFALSIWAKEMTQGLFSANFVGKYNPTGAVKGWAIEKAERIQLEPLLSDPNFVAVNLNGGGDMQFSSSDKHNWQWEIGIVNPFDNKKVISCFRMKNGAIATSGTSQRGEHLFNSSTGRAIPEKNFNVISSSVIGSELTYSDIWATAIATTTINDHSWLKRLSGSGLRISYNKKSERWLNHEIIDQKELIYA
MGSDKIHHHHHHMMKSNENNGAVTKSFAKKMESISPFELKNKLIEMADESIKKIAHTMLNAGRGNPNWIATTPREAFFLLGKFGLEECRRVMYLPEGIAGIPQKDGIAARFETFLKTNHSQPGAELLKGTYQYMLLEHAADPDTLVHEWAEGVVGDQYPVPDRILQFTEMIVQDYLAQEMCDRRPPKGKYDLFATEGGTAAMCYVFDSLQENFLLNKGDGIALMVPVFTPYIEIPQLRRYEFNVTEISADQMTTDGLHTWQYKDEDIDRLRNPQIKALFITNPSNPPSYTLSPETAARIVDIVKKDNPNLMIITDDVYGTFSPHFRSLMAELPQNTLCVYSFSKYFGATGWRDAVIALHEENIFDRMIAHLPEEQKTILNKRYSSLTLTPEKLKFIDRMVADSRQVALNHTAGLSLPQQTQMSLFASFAILDKENRYKNKMQEIIRRRLKALWDNTGFSLVDDPLRVGYYSEIDMLVWAKIFYGEEFVSYLKKTYSPLDVVFRLANETSLVLLNGGGFAGPEWSVRVSLANLNEKDYVKIGQGIKRILDEYAVKWQESRK
MGSDKIHHHHHHMMLNQYQIFTMVDNLSLLHHKNDPMNKNDLINTKSTLCPCGSKQLYSKCCEPYHLSHAVAERPEHLMRSRYSAFVLRQFHYLITTHHADYLHGLTEQQLAQGDVQWLGLQVLSSKQESDHGEVTFKAWFIEDKHIDAIYECSSFIKQDGCWFYTHGQQMQTPLPSRNDACICSSGKKFKLCCAKLMR
MGSDKIHHHHHHMMRLIRDLAQRPNPPDVGFQFVTDEEIGGRHGTGRLRDEGWHCDFMLCLEPTDLGIMFEHKGGMWAQLRIPGRAAHGSRPWEGDNPVYRLMQGIQAISERYPPPTGPHDWRTSVTPTEIRMGAGSRNQVPAEALVTFDIRWTADTTPETIQADLAAAFPDAEFISVMASAGLRTDPEHQEVGRIADIVERHIGHTPRFYREHFATDARYYSHIGIPAICLGPVGAGLHSAEEWVEIASLTSLYQIILDYIDTM
MGSDKIHHHHHHMMRPALRSTSTPKSPLVTCVSHDLTVSAPQGVFLSGLNTKFRAYVGGFGSGKTYVGCLDLGLFAGQHPKTVQGYFAPTYRDIRDTFWPTVDEAAHSLGFTTKVKSADKEVEFYRGRSYYGTTICRSMDDPGGIVGFKIARALVDEIDILSKDKAQAAWRKIIARMRLVLPGVVNGIGVTTTPEGFRFVYDSFKREPKSNYSMVQASTYENEAFLPPDYISTLLEDYPEELIKAYLMGEFVNLTSGTVYRSYDRLRHRSTQSIQPREPLHIGQDFNVGNMASVVFVQRGEDWHAVDELQGLQDTPHLIEVLCDRYEGHHLTIYPDASGSSRKTVNASTSDIELLRKAGHAIRAPSTNPAVKDRILAVNTAFENGRLFVNALRCKAYAEALEQQAYDKNGEPDKSAGLDHHPDAGGYFVHQKMPVVKPTFTRQELRL
MGSDKIHHHHHHMMVNESADQLYSFALLDEDAKREIRRSLLKAVALPGHLIPFASRDLPIARGWGTGGLQITLSIITPDDTLKVIDQGDDESVNAVNLRRLIHRTTGVATTTDTAAASLIQTRHRIPEEPLRADQILVLQVPMADPLRWVEPSLERAITMHGETDYGKMWVYLYESVVRAGDLRIASQYPVIVNHRYMMDTTPIPRWDVPKLHMAETLYLFGAGREKRIYAVPPHTPVEPLQFEDYPFRTEYRPGQRCARCGAENTFLTSHFVADANGGRWEMTCSDVAFCAKRQGEQRDR
MGSDKIHHHHHHMNADDAYKPIQRATLSEASWRILRIAQSVELRHPVSHETALAIWGVELPADSDCSVVSLRSSQGGYAGTDVDYGWSGESPAFGHSEHSIRLGQDFPDSDFQYFPDSQAVSRNQIPGLRQSASQPSQFPQSPAKLHTVAQSPARRGRVKKSTSVSADVTVHVWKGLSARHVREVAGVPVLMPVPAWSLAAGRWGIQDIVMVAESLIRHRFATRKGLIEFVKTESVPYRSKCLDALALVQSGSDSPKETEMRLTLVCYGLPIMQPNCVVPGVNFANGAAVTLDLVDAEHRFGLDYQGDHHRTDRAQYRRDQNKLSRLAAAGWTVFSVTQLDLSDELHRAAFAMNVAHALSSIVGRPIGVTTPLPWRKVVLRYRKARKLRLLD
MGSDKIHHHHHHMNEIFVFHGQEVRTVTINNEPWFVGKDVADILGYSKSRNAIALHVDEDDALKQGITDNLGRMQETIIINESGLYSLILSSKLPQVKEFKRWVTSEVLPQIRQQGAYVPENLSDEAFIALFTGQKKLKEHQLALAQDVDYLKNEQPIHPSFAQALLKKRKARVVSCLGGMDSPAYADKVFAQSVFRQAEVDFKDHFNINRYDMLPKKFAEAALSYWMTWEPSTNTKMKILEMNAYEL
MGSDKIHHHHHHMNEQIIEDLSSPWSGNTVHLVTVDGSQLIKKQYRKKEGYLREVHALRTVPQAICPSLVDAYEQLTYEPLQKNIQAADLDEIIGSLLRELHQHTVQKPSVFDPGNGVTKETWLDYLESFAPNWLQTIGTEKYESMYWSAINSVRAAYDRNQRALCLIHRDARLANVGEGSDGRFLFLDFELAIIGDPLWDVARYLIQSVHSETTFLKAYEFDHTEIEVLQAYKKLYAMSFMNYLIKNKQADTLDFKKCVNVLTN
MGSDKIHHHHHHMNFDVAIIGGGLAGLTCAIALQQRGKRCVIINNGQAAIDFASGSLDLLSRMPSTTYGENRAVENLKENITALRNELPAHPYSLLGAEKVLAKAQDFERLANELHLDLIGSTEKNHWRVTGLGSLRGAWLSPNSVPTVQGNEPFPHKRIAVLGIEGYHDFQPQLLAANLVLNPQFEHCEVTSGFLNIPQLDELRKNAREFRSVNISQLLEHKLAFKDLVKEIIESAQGAEAVFLPACFGLENQEFMTALRDATKLALFELPTLPPSLLGMRQRIQLRHKFESLGGLMINGDSALNATFEGNQVRCINTRLLEDEEITADNFVLASGSFFSKGLISEFDKIYEPVFESDIIGVEGFNNKDRFTWTAHRFAHPQPYQSAGVAINAQCQVKKCGQFLTNLYAVGNVIGGFNALELGCGSGVAVVTALAVADEILAK
MGSDKIHHHHHHMNFPELKLSQTERDFNFDFAILEHDLSYFFEKRCLDYALEHINRFNHKIKDNLYNVRPLILKEALISLTCDLASVSFYHYLNMITFVNLRKDILHYLTTTTLTNDDFMPLLESIVNNYFSNLDTLDIPIDGTRLSKQVALVVYYIDNHCDEPLRANTILEELTLDPEYTKRKFRKELGFTINFYIRHAKLQRAKQLLINTHLPIGEIAERINFYNSAEFARQFQKEFDITPSKYRELNQIFYKEE
MGSDKIHHHHHHMNGKTIILANPRGFCAGVDRAISIVERALEEFGAPVYVRHEVVHNKFVVDNLREKGAVFIEDLAEVPPGATLVYSAHGVSKAVQQEAAERGFRVFDATCPLVTKVHKEVARLDAQDCEIIMIGHKGHAEVEGTMGQLAPGKMLLVETVGDVAKLEVRNPDKLAYVSQTTLSVDETKDIIAALNARFPNIRNPHKEDICYATTNRQTAVKELAEQCDIVIVVGSPNSSNSNRLREVAASRGIDAYMVDNASYLQRTWFEGKSKVGVTAGASAPEVLVREVLATIRGWGHETVREGGGAEESIVFVLPKELRREGETKPDLCKR
MGSDKIHHHHHHMNGNIIVAHGMRHGRQNQALEAFISELVKDDIHHYDIAFLESEHQDLETVMTTLIQSGVDHFKIVPLLIFSAMHYLKDIPNIVHEMKRRYPDIKVEVSEPLGTHPLMRRLIEQRICDALAGDEQQVGVMVVAHGNINGNFTKAHEELQICAQHLQINKPTYARTLYGEISFTHDLESISKRYQKLIVVPLFLYDGRLVNKVKQQMNDMVINTDIHFTPSINFDPILKQIINDRLESLMIPMKI
MGSDKIHHHHHHMNIKHLDVLRTLLATGSTIAAAKAMGLSQSGVSRMLQQLESDLAITLFARDKGRLIPTPEATVLGRDAQNVLLAIERMSGHAEDLRNGSAGPEIVRIGLPSSMWENFAPAMLIDYVRDFPGVRIETFFETTTAITKLVEERVIDLGFLRIEGETGPGIAIDKVASGESVCVVPKDHSLAELPEITVKHLRNVPLILIGRQRPNRMALDQAFQRAGVKQMVKIETHTNSSACSYVAHGLGVSIISSFYANLYRHLPVVYRPFVPRATQEFGLVRAAGVPLSIAAQALSDALKKQIRLSQEEQ
MGSDKIHHHHHHMNILVTGGAGFIGSHVVDKLIENGYGVIVVDNLSSGKVENLNRNALFYEQSIEDEEMMERIFSLHRPEYVFHLAAQASVAISVREPARDAKTNIIGSLVLLEKSIKYGVKKFIFSSTGGAIYGENVKVFPTPETEIPHPISPYGIAKYSTEMYLEFFAREYGLKYTVLRYANVYGPRQDPYGEAGVVAIFTERMLRGEEVHIFGDGEYVRDYVYVDDVVRANLLAMEKGDNEVFNIGTGRGTTVNQLFKLLKEITGYDKEPVYKPPRKGDVRKSILDYTKAKEKLGWEPKVSLEEGLKLTVEYFRKTLE
MGSDKIHHHHHHMNIPNIRLLNQQLLNPLFREPKELVSWMGAMQAQNYSMVKWAVGMRLKSATIQTVEKALREGEILRTHVMRPTWHLVAAEDIRWMLKLSAQRIISANDSFAKGYDLDIPNELYTKAHDLLEKILCGKKSLTKQEIAEHFNRSGIVADNRRMTRFMARAEQEGIICSGEDRGSKCTYALLEERVPPMPELTKDESLARLARSYFRSHSPAVLQDFIWWSGLSVSDAKQAVYLIASELITEQWKEQTWYIHDICRTRGKLSGHIHLLPSYDEYLLGYKDRTDVLPLEHYSKAFTNNGLFFPIVLHNGQVIGNWDKSVKKKSVDLKYSWFRQVADMNEETLERERQKFTRFLEK
MGSDKIHHHHHHMNIQKVTFRNADMAWDMAALILLPEGFDESKRYPTMVSVHPFGSCKEQTSSAVYGKALAELGYVVIAFDASFQGESGGSPRYVEDPSQRVEDISRVIDYAVSLPYVDEDRIGGLGICGGGAYIFSSALTEKRLKAVVGITPVNLGRLFREGFSQYNPIGALEAMATQRTAEARGAELQVNELLPPSPEFAKQNGMTERDLFEATDYYKTPRGQAEGGATRMLFSHAQKTLSWDAFAFVETLMTQPMMAVVGQKLGAFGAYRDGHEVYGRSIVSKDRQLVELQDWSHYDLYDHPQAVSLAMEKIGPFLSQHL
